Assay results published in the MegaScale stability set (Tsuboyama et al. 2023).

B1: EHEE_rd2_0191 (parent)
chain: TTEYTFTDDEEARRAIEELKKRGLTFRYEKHGTTWRVRVD

Variants of: B1
Test: folding stability dG (cDNA display proteolysis); higher = more stable
Settings: PBS, room temperature

Row | Variant | folding stability dG [kcal/mol]
1 | A12S | -0.064
2 | A12Y | 1.66
3 | A12R | -0.372
4 | A12C | 2.13
5 | A12T | 0.424
6 | A12H | 0.073
7 | A12V | 1.47
8 | A12G | 1.04
9 | A12M | 2.33
10 | A12F | 3.56
11 | A12I | 0.942
12 | A12Q | -0.999
13 | A12K | -0.512
14 | A12W | 1.63
15 | A12L | 2.53
16 | R13D | 0.9
17 | R13A | 1.85
18 | R13Y | 2.2
19 | R13S | 1.55
20 | R13K | 2.04
21 | R13H | 1.98
22 | R13N | 1.68
23 | R13V | 1.69
24 | R13I | 2.1

Row | Variant | folding stability dG [kcal/mol]
25 | R13L | 2.3
26 | R13E | 1.79
27 | R13T | 1.83
28 | R13G | 1.44
29 | R13W | 2.52
30 | R13Q | 1.94
31 | R13F | 2.31
32 | R13M | 2.42
33 | E18H | 1.86
34 | E18I | 2.15
35 | E18T | 1.84
36 | E18S | 1.99
37 | E18L | 2.08
38 | E18Y | 2.29
39 | E18G | 1.74
40 | E18F | 2.12
41 | E18D | 2.03
42 | E18V | 1.96
43 | E18Q | 1.97
44 | E18N | 1.9
45 | E18M | 2.11
46 | E18W | 2.69
47 | E18R | 1.7
48 | E18K | 1.74

Row | Variant | folding stability dG [kcal/mol]
49 | E18A | 2.01
50 | E10P | 0.527
51 | E10V | 2.02
52 | E10S | 1.87
53 | E10N | 2.12
54 | E10R | 1.99
55 | E10A | 2.09
56 | E10T | 2.02
57 | E10F | 1.98
58 | E10H | 1.93
59 | E10Y | 1.96
60 | E10Q | 1.95
61 | E10D | 2.15
62 | E10G | 2.07
63 | E10K | 1.98
64 | E10L | 1.98
65 | E10W | 1.93
66 | E10M | 1.96
67 | E10I | 2
68 | D9A | 2.15
69 | D9S | 1.81
70 | D9N | 1.63
71 | D9L | 1.91
72 | D9H | 1.73

Row | Variant | folding stability dG [kcal/mol]
73 | D9I | 2.08
74 | D9R | 1.92
75 | D9K | 1.77
76 | D9Q | 1.8
77 | D9W | 3.27
78 | D9Y | 2.39
79 | D9F | 2.33
80 | D9M | 1.83
81 | D9V | 2
82 | D9E | 2.41
83 | D9T | 1.3
84 | D9P | 2.3
85 | D9G | 1.81
86 | Y4N | -0.571
87 | Y4S | 0.036
88 | Y4A | 0.059
89 | Y4W | 2.22
90 | Y4L | 1.93
91 | Y4F | 1.99
92 | Y4V | 0.805
93 | Y4C | 2.79
94 | Y4E | -0.036
95 | Y4Q | 0.601
96 | Y4T | 0.315

Row | Variant | folding stability dG [kcal/mol]
97 | Y4M | 1.79
98 | Y4I | 1.44
99 | Y4K | 0.122
100 | Y4R | 0.382
101 | Y4H | 0.788
102 | T5V | 2.54
103 | T5I | 2.71
104 | T5K | 1.3
105 | T5S | 1.49
106 | T5M | 1.95
107 | T5F | 2.51
108 | T5A | 1.23
109 | T5R | 1.64
110 | T5L | 2.25
111 | T5N | 1.36
112 | T5C | 2.33
113 | T5Y | 2.39
114 | T5E | 1.79
115 | T5D | 0.819
116 | T5G | 0.086
117 | T5Q | 1.64
118 | T5W | 2.68
119 | T5H | 1.67
120 | T2V | 2.4

Row | Variant | folding stability dG [kcal/mol]
121 | T2Y | 2.41
122 | T2H | 2.08
123 | T2I | 2.5
124 | T2M | 2.2
125 | T2S | 1.68
126 | T2Q | 2
127 | T2N | 1.58
128 | T2L | 2.3
129 | T2P | 0.931
130 | T2G | 1.42
131 | T2R | 2.27
132 | T2K | 2.01
133 | T2W | 2.62
134 | R14E | 1.7
135 | R14T | 1.73
136 | R14W | 1.68
137 | R14V | 1.78
138 | R14M | 1.97
139 | R14G | 1.35
140 | R14I | 1.93
141 | R14Y | 1.64
142 | R14F | 1.64
143 | R14Q | 1.9
144 | R14H | 1.82

Row | Variant | folding stability dG [kcal/mol]
145 | R14S | 1.75
146 | R14L | 1.91
147 | R14N | 1.84
148 | R14D | 1.45
149 | R14K | 2.12
150 | R14A | 2.1
151 | A15F | 4.89
152 | A15C | 3.17
153 | A15E | 0.719
154 | A15Q | 1.29
155 | A15K | 1.97
156 | A15V | 2.36
157 | A15M | 2.85
158 | A15S | 1.07
159 | A15R | 1.08
160 | A15I | 2.02
161 | A15G | 1.06
162 | A15T | 1.94
163 | A15W | 2.9
164 | A15Y | 2.87
165 | A15N | 0.878
166 | A15H | 1.73
167 | A15L | 2.63
168 | R22H | 1.64

Row | Variant | folding stability dG [kcal/mol]
169 | R22F | 1.55
170 | R22V | 1.23
171 | R22S | 1.93
172 | R22Q | 2.1
173 | R22L | 2.25
174 | R22M | 2.19
175 | R22G | 1.28
176 | R22E | 1.35
177 | R22K | 2.02
178 | R22D | 1.03
179 | R22A | 2.1
180 | R22T | 1.56
181 | R22N | 1.69
182 | R22I | 1.52
183 | K21E | 1.71
184 | K21H | 1.58
185 | K21W | 1.37
186 | K21M | 1.9
187 | K21T | 1.82
188 | K21C | 2.13
189 | K21F | 1.63
190 | K21S | 1.94
191 | K21A | 2.12
192 | K21G | 1.45

Row | Variant | folding stability dG [kcal/mol]
193 | K21L | 1.94
194 | K21Q | 1.81
195 | K21D | 1.32
196 | K21N | 1.78
197 | K21V | 1.66
198 | K21R | 2.35
199 | K21I | 1.79
200 | K21Y | 1.49
201 | E11P | 0.754
202 | E11T | 2.31
203 | E11L | 1.84
204 | E11I | 1.78
205 | E11N | 1.56
206 | E11S | 2.43
207 | E11F | 1.37
208 | E11Q | 2.1
209 | E11K | 1.73
210 | E11V | 1.85
211 | E11W | 1.5
212 | E11G | 1.46
213 | E11C | 2.14
214 | E11D | 1.88
215 | E11Y | 1.29
216 | E11A | 2.16

Row | Variant | folding stability dG [kcal/mol]
217 | E11R | 1.54
218 | E11M | 2.02
219 | E11H | 1.77
220 | E3S | 1.55
221 | E3I | 2.52
222 | E3Y | 2.62
223 | E3T | 2.31
224 | E3M | 2.14
225 | E3D | 1.58
226 | E3H | 1.73
227 | E3N | 1.39
228 | E3L | 2.25
229 | E3P | 0.266
230 | E3C | 2.81
231 | E3G | 0.724
232 | E3W | 3.02
233 | E3Q | 1.47
234 | E3A | 1.12
235 | E3R | 1.12
236 | E3K | 0.77
237 | E3F | 2.44
238 | E3V | 2.56
239 | F6W | 0.741
240 | F6G | -0.522

Row | Variant | folding stability dG [kcal/mol]
241 | F6M | -0.111
242 | F6I | 0.614
243 | F6Y | 1.96
244 | F6L | 0.168
245 | F6T | -0.433
246 | D8F | 0.882
247 | D8L | 1.08
248 | D8R | 1.39
249 | D8S | 2.44
250 | D8E | 1.29
251 | D8A | 1.24
252 | D8W | 0.65
253 | D8M | 0.896
254 | D8N | 2.41
255 | D8T | 2.29
256 | D8V | 1.36
257 | D8Y | 0.721
258 | D8K | 1.37
259 | D8H | 1.32
260 | D8Q | 1.16
261 | D8I | 1.2
262 | D8G | 1.33
263 | I16C | 1.58
264 | I16T | -0.106

Row | Variant | folding stability dG [kcal/mol]
265 | I16L | 1.64
266 | I16V | 1.12
267 | I16M | 2.23
268 | I16A | -0.729
269 | I16W | 0.024
270 | I16N | 0.255
271 | I16F | 1.37
272 | I16G | -0.247
273 | I16Y | -0.65
274 | E17F | 1.97
275 | E17R | 2.23
276 | E17K | 2
277 | E17W | 2.07
278 | E17T | 1.89
279 | E17S | 1.97
280 | E17M | 2.1
281 | E17V | 1.83
282 | E17Y | 2.02
283 | E17I | 2.01
284 | E17D | 1.95
285 | E17G | 1.71
286 | E17L | 2.11
287 | E17A | 2.25
288 | E17N | 2.02

Row | Variant | folding stability dG [kcal/mol]
289 | E17Q | 2.04
290 | E17H | 1.88
291 | L19I | 1.55
292 | L19V | 0.238
293 | L19F | 2.64
294 | L19A | 0.832
295 | L19W | 1.94
296 | L19M | 1.73
297 | L19Y | 1.58
298 | T7M | 1.82
299 | T7A | 1.63
300 | T7L | 1.83
301 | T7Y | 2.47
302 | T7R | 1.59
303 | T7E | 2.07
304 | T7W | 1.89
305 | T7F | 2.22
306 | T7H | 2.13
307 | T7Q | 1.88
308 | T7G | 1.37
309 | T7S | 1.75
310 | T7N | 1.97
311 | T7I | 1.68
312 | T7V | 1.71

Row | Variant | folding stability dG [kcal/mol]
313 | T7C | 2.34
314 | T7K | 1.62
315 | T7D | 1.97
316 | T7P | 0.677
317 | K20S | 1.81
318 | K20F | 2.02
319 | K20G | 1.41
320 | K20E | 1.86
321 | K20L | 2.15
322 | K20T | 2.12
323 | K20D | 1.15
324 | K20C | 2.56
325 | K20A | 1.81
326 | K20Y | 1.99
327 | K20M | 2.15
328 | K20I | 2.42
329 | K20R | 2.27
330 | K20N | 1.54
331 | K20H | 1.71
332 | K20Q | 2
333 | K20W | 1.75
334 | K20V | 2.07
